According to article PMC10520873, “Biochemical investigation of the tryptophan biosynthetic enzyme anthranilate phosphoribosyltransferase in plants” (The Journal of Biological Chemistry, 2023):

Key:
Assay in all cases: purified protein
Nc1ccccc1C(=O)O [1] = tested on: T1, Nc1ccccc1C(=O)O; type: biochemical, Arabidopsis thaliana; details: 1 mM PR-PPi, 45 mM imidazole HCl pH 7.4, 30 °C, anthranilate 0-0.75 mM
T1 construct: codon-optimized gene in pET28a, His-tagged, E. coli BL21 (DE3), Ni-NTA

Nc1c(O)cccc1C(=O)O [2] = tested on: T2, Nc1c(O)cccc1C(=O)O; type: biochemical, Arabidopsis thaliana; details: 1 mM PR-PPi, 45 mM imidazole HCl pH 7.4, 30 °C, 3-HAA 0-0.5 mM
T2 construct: codon-optimized gene in pET28a, His-tagged, E. coli BL21 (DE3), Ni-NTA

Nc1c(O)cccc1C(=O)O [3] = tested on: T2, Nc1c(O)cccc1C(=O)O; type: biochemical, Juglans regia; details: 1 mM PR-PPi, 45 mM imidazole HCl pH 7.4, 30 °C, 3-HAA 0-0.5 mM
Nc1ccccc1C(=O)O [4] = type: biochemical, Juglans regia; details: 1 mM PR-PPi, 45 mM imidazole HCl pH 7.4, 30 °C, anthranilate 0-0.75 mM
Nc1ccccc1C(=O)O [5] = type: biochemical, Physcomitrium patens; details: 1 mM PR-PPi, 45 mM imidazole HCl pH 7.4, 30 °C, anthranilate 0-0.75 mM
Nc1ccccc1C(=O)O [6] = tested on: T1, Nc1ccccc1C(=O)O; type: biochemical, Selaginella moellendorffii; details: 1 mM PR-PPi, 45 mM imidazole HCl pH 7.4, 30 °C, anthranilate 0-0.75 mM
Nc1c(O)cccc1C(=O)O [7] = tested on: T2, Nc1c(O)cccc1C(=O)O; type: biochemical, Selaginella moellendorffii; details: 1 mM PR-PPi, 45 mM imidazole HCl pH 7.4, 30 °C, 3-HAA 0-0.5 mM

AtPAT1 (Arabidopsis thaliana)
Km (Nc1ccccc1C(=O)O [1]): 20.6 ± 2.0 µM | kcat (Nc1ccccc1C(=O)O [1]): 0.132 ± 0.00167 s⁻¹ | kcat/Km (Nc1ccccc1C(=O)O [1]): 6360 M⁻¹ s⁻¹ | Km (Nc1c(O)cccc1C(=O)O [2]): 19.63 ± 2.3 µM | kcat (Nc1c(O)cccc1C(=O)O [2]): 0.0483 ± 0.00117 s⁻¹ | kcat/Km (Nc1c(O)cccc1C(=O)O [2]): 2470 M⁻¹ s⁻¹

JrPAT1 (Juglans regia)
Km (Nc1c(O)cccc1C(=O)O [3]): 28.23 ± 4.2 µM | kcat (Nc1c(O)cccc1C(=O)O [3]): 0.0483 ± 0.00167 s⁻¹ | kcat/Km (Nc1c(O)cccc1C(=O)O [3]): 1690 M⁻¹ s⁻¹ | Km (Nc1ccccc1C(=O)O [4]): 38.7 ± 3.5 µM | kcat (Nc1ccccc1C(=O)O [4]): 0.055 ± 0.00167 s⁻¹ | kcat/Km (Nc1ccccc1C(=O)O [4]): 1420 M⁻¹ s⁻¹

PpPAT1 (Physcomitrium patens)
Km (Nc1ccccc1C(=O)O [5]): 31.8 ± 4.4 µM | kcat (Nc1ccccc1C(=O)O [5]): 0.0567 ± 0.00167 s⁻¹ | kcat/Km (Nc1ccccc1C(=O)O [5]): 1790 M⁻¹ s⁻¹

SmPAT1 (Selaginella moellendorffii)
Km (Nc1ccccc1C(=O)O [6]): 189 ± 35 µM | kcat (Nc1ccccc1C(=O)O [6]): 0.085 ± 0.005 s⁻¹ | kcat/Km (Nc1ccccc1C(=O)O [6]): 450 M⁻¹ s⁻¹ | Km (Nc1c(O)cccc1C(=O)O [7]): 22.66 ± 1.5 µM | kcat (Nc1c(O)cccc1C(=O)O [7]): 0.0533 ± 0.000833 s⁻¹ | kcat/Km (Nc1c(O)cccc1C(=O)O [7]): 2360 M⁻¹ s⁻¹
